Data published in patent US20250064853A1 (GYALA THERAPEUTICS SOCIEDAD LIMITADA, published 2025).

T1: human CD84 on cells (human, UniProt Q9UIB8 22-345)
T1 construct: the cells were 300.19 cells stably transfected with CD84 full-length DNA, or Raji, Ramos, MOLM-13 cells, lymphocytes and monocytes with their own CD84; also called LY9B; SLAMF5
T1 sequence: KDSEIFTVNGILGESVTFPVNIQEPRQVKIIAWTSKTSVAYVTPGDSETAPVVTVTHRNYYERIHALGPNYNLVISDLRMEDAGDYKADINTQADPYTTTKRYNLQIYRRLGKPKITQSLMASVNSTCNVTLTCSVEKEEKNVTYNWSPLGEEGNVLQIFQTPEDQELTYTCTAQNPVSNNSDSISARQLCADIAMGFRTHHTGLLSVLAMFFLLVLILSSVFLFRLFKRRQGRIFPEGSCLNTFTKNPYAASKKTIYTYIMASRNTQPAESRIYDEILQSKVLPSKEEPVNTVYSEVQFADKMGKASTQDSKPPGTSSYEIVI

B1: 152-1D5 (antibody, IgG1, V domains shown)
VH: QVQLQQPGAEVVQPGTSVKLSCKASGYNFTNYWINWVKLRPGQGLEWIGDIYPVSGTTNYNEKFKRKATLTVDTSSSTGNMQLSSLASEDSALYYCASGTGRFAYWGQGTLVTVSA
VL: DIVLTQSPASLAVSLGQRATISCRASQSVSTSSYSYMHWYQQKPGQPPKLLIKFASNLESGVPARFSGSGSGTDFTLNIHPVEEEDTATYYCQHSWEIPYTFGGGTKLEIK
notes: tested as hybridoma supernatant; also called anti-CD84 mouse monoclonal antibody 152-1D5
B2: GYCD84.1-97 (antibody, IgG2a, V domains shown)
VH: QVQLQQPGAELVKPGTSVKLSCKASGYNFTSYWINWVKLRPGQGLEWIGDIYLGSGSTNYNEKFKSKATLTVDTSSSSAYMQLSSLVSEDSALYYCATSGGYLGYWGQGTTLTVSS
VL: B1 VL
notes: tested as hybridoma supernatant
B3: GYCD84.5.171 (antibody, IgG1, V domains shown)
VH: EVQLVESGGGLVQPKGSLKLACAASGFTFNIYAMNWVRQAPGKGLEWVARIRSKSNNYARFYADSVKDRFTISRDDSQSMLYLQMNNLKTEDTAMYYCVRPLRSYFSMDYWGQGTSVTVSS
VL: SIVMTQSPKSMSMSVGERVTLSCKASENVDTYVSWYQQKPEQSPKLLIYGASNRYTGVPDRFTGSGSATDFTLTISSVKAEDLADYHCGQTYSYPWTFGGGTKLEIK
notes: as for B2

Each binder was assayed against T1, human CD84 on cells (assay: flow cytometry, hybridoma supernatant, 300.19 cells transfected with CD84).

Point of comparison: B2, 300.19-CD84 binding 97.7%. Against it:
- B1 — lower, 92.5%
- B3 — lower, 93.2%
